Experimental data: patent publication US20100041597A1 (published 2010)

B1: PRE 4 (peptide)
peptide: Ac-KDAQNLIGISI-NH2
notes: Synthetic peptide; also called peptide PRE 4
B2: PRE 3 (peptide)
peptide: Ac-AKGIQEVKGGDAQNLIGISI-NH2
notes: Synthetic peptide; also called peptide PRE 3

Tests used:
[1] = target: T1, PKC-ε (endogenous, human cell extracts) (human, UniProt Q02156 1-737); assay: Protocol B blot competition, IMR-32 extract, competitor anti-PKC-ε Ab, Band 2; PRE 50 µg
T1 construct: Two bands on the blot, said to be alternate splicing variants; also called PKC-epsilon; PKC-ε Band 1
T1 sequence (looked up): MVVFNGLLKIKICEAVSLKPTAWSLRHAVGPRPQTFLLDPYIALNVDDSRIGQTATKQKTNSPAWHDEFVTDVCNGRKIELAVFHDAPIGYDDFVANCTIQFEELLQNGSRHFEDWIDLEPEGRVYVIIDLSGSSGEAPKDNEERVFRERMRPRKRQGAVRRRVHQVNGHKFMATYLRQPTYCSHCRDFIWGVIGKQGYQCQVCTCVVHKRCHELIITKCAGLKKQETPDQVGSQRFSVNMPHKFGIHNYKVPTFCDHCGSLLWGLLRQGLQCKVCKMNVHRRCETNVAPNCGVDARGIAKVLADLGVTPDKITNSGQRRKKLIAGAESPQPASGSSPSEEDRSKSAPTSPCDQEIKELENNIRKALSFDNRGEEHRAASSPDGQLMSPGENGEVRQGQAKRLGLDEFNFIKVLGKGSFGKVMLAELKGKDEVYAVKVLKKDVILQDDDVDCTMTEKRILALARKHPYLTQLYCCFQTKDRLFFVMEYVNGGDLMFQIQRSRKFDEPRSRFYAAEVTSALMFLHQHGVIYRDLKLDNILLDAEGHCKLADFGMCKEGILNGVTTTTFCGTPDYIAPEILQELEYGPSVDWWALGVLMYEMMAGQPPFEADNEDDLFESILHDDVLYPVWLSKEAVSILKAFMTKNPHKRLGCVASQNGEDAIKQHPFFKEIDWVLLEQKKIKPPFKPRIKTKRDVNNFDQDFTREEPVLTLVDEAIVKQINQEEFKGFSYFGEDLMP
Protocol: (§1) The ability of the peptides PRE 2 and PRE 3 (see Table 3) to interfere with the binding of a PKC-α-specific polyclonal antibody (Santa Cruz Biotechnology, Inc.) to PKC-α was determined using a modified version of the protocol outlined above in which the test peptide was added directly to the cell extract prior to electrophoresis at a concentration of either 5× or 15× the concentration of the protein applied to each well of the gel for the Western blots (20 μg).
(§2) Peptides PRE 2, PRE 3 and PRE 4 (see Table 3) were tested for their ability to interfere with the binding of isoform-specific polyclonal antibodies (Santa Cruz Biotechnology, Inc.) to PKC-ε using the general protocol described in Example 3. Two bands, representing alternate splicing variants of PKC-ε, were identified on the Western blot using this anti-PKC-ε antibody.

[2] = target: T1, PKC-ε (endogenous, human cell extracts); assay: Protocol B blot competition, IMR-32 extract, competitor anti-PKC-ε Ab, Band 2; PRE 100 µg
Protocol: as §1, §2

[3] = target: T2, PKC-ι (endogenous, human cell extracts) (human, UniProt P41743 2-596); assay: Western-blot competition on cell extracts against the anti-PKC-ι primary antibody; peptide at 10X and 20X the antibody concentration; band densitometry (lower band = peptide bound)
T2 construct: also called PKC-iota
T2 sequence (looked up): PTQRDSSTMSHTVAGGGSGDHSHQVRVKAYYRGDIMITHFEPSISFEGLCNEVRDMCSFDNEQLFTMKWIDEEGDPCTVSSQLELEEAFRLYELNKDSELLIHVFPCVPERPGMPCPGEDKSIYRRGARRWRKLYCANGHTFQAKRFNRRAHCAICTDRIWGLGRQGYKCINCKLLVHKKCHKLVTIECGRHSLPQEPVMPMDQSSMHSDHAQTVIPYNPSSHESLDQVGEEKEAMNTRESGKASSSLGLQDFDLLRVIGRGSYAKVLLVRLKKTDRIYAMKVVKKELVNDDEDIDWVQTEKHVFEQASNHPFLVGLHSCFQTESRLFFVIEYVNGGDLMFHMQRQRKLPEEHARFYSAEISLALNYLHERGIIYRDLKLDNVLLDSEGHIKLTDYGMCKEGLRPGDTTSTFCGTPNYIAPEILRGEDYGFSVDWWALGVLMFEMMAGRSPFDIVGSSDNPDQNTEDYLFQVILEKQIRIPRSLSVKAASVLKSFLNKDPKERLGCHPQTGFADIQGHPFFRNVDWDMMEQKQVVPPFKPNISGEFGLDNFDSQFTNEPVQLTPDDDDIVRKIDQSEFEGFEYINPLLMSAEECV
Protocol: Binding efficiency and specificity of the peptides PRE 2, 3, 4, 5, 6, 7, 8, 9, 10, 11, 12 and 13 (see Table 3) was also tested using cytoplasmic extracts from different cell lines expressing appropriate PKC isoforms as described for Example 1. Briefly, the protein cytoplasmic extracts were separated by electrophoresis and transferred onto nitrocellulose membranes by standard Western blotting procedures. The bands on the Western blots were detected with matching primary antibodies and alkaline phosphatase conjugated secondary antibody. The bands were then scanned and the relative density measurements obtained.
This procedure to assess the binding characteristics of the PREs is based on competition binding of the PRE with the primary anti-isoform PKC specific antibodies. The lower the measured band density, the greater the binding of the PRE to the PKC isoform. The PREs were added at 10 and 20 times (10×, 20×) the primary antibody concentration, according to classical competition between antigenic peptide and primary antibody. The following cell lines (obtained from the ATCC) were used: H661—NCI human lung carcinoma NSCLC; MDAMB231—human highly invasive breast cancer cell line from pleural effusion; LS180—human colon adenocarcinoma; LnCAP—human prostate adenocarcinoma; CCD16Lu—human lung fibroblasts; Du145—human prostate carcinoma brain metastasis, and T24—human bladder carcinoma.

| Binder | band intensity [1] | inhibition (%) [1] | relative intensity (%) [1] | band intensity [2] | inhibition (%) [2] | relative intensity (%) [2] | binding result [3] |
| --- | --- | --- | --- | --- | --- | --- | --- |
| B1 | 0 | 100% | 0% | 0 | 100% | 0% | binds |
| B2 | 0 | 100% | 0% | 0 | 100% | 0% | binds |
